Experiment [1] concerns the target T1, human disulfide HMGB1 (human, UniProt P09429 1-215, disulfide form (ds-HMGB1) as printed; the cysteines involved are not stated).
T1 construct: also called human dsHMGB1; ds-HMGB1
T1 sequence (looked up): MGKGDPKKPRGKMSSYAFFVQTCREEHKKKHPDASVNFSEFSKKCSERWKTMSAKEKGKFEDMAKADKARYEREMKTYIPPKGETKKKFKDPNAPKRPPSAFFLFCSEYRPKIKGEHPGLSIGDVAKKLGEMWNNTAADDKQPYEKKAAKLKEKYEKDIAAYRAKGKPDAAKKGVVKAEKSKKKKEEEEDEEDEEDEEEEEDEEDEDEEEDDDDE
In words: SPR, antibody after against before 6-month storage at 4 C.

The target in experiment [2] is T1, human disulfide HMGB1. In words: ELISA, saturation curve: concentration of bound antibody against concentration of added antibody, on human dsHMGB1.
Experiment [3] addresses T1, human disulfide HMGB1. Description: SPR, antibody after 6-month storage at 4 C; unit inferred; after storage for 6 months at 4° C.
The target in experiment [4] is T1, human disulfide HMGB1. Description: SPR as in Example 1; unit inferred; human dsHMGB1; before storage.
For experiment [5], the target named is T2, human reduced HMGB1 (human, UniProt P09429 1-215, reduced form as printed).
T2 sequence (looked up): T1 sequence (looked up)
In words: SPR as in Example 1; unit inferred; human reduced HMGB1.

The target in experiment [6] is T2, human reduced HMGB1. Description: ELISA, saturation curve: concentration of bound antibody against concentration of added antibody, on human reduced HMGB1.
The target in experiment [7] is human HMGB1 protein (human) (UniProt P09429). In words: SPR, Biacore T100, antibody immobilized on chip, human HMGB1 as analyte.

B1: human monoclonal antibody #129-L2 (antibody, human IgG1, kappa, V domains shown)
VH: EVQLLESGGGLVQPGGSLRLSCAASGFTFSSYAMSWVRQAPGKGLEWVSDISGSGGSTYYADSVKGRFTISRDNSKNTLYLQMNSLRAEDTAVYYCARGYGMDVWGQGTMVTVSS
VL: DIQMTQSPSSLSASVGDRVTITCRASQSVTNYLAWYQQKPGKAPKLLIYGASILETGVPSRFSGSGSGTDFTLTINSLQPEDFATYYCLQHASTPLTFGQGTKLEIKT
B1: in experiment [1], the “fold increase of KD after storage against before storage” value is ~2.5 fold. For the same molecule, the Kd in experiment [2] was found to be 0.0549 nM; in experiment [3], 0.0351 nM; in experiment [4], 0.0144 nM; in experiment [5] it was 15100 nM; in experiment [6] it was 6880 nM. Further, in experiment [6], the Km was 4.34e-09 M (from the axes; none beside the number).

B2: mouse monoclonal antibody 2C8C (antibody, from another filing, V domains shown)
VH: QVQLQQSGPELVKPGASVKLSCKASGYTFTDYTIHWVKQSPGQGLEWIGWIYPGSGNTKYNDKFKGKATMTADKSSSTAYMQLSSLTSEDSAVYFCARGFAYWGQGTLVTVSA
VL: DIVLTQSPATLSVTPGDSVSLSCRASQSISNNLHWYQQKSHESPRLLIKYASQSISGIPSRFSGSGSGTDFTLSINSVETEDFGMYFCQQTNSWPLTFGAGTKLELK
In experiment [7], B2 showed a dissociation constant (Kd) of 1.95 nM.
